The test system of one data set is ex-vivo rat eyes. The procedure:
In order to investigate the efficacy of 3OC12-HSL as drug delivery enhancer in intact tissue, bevacizumab (250 μg/mL: […]) and aflibercept (40 mg/mL: 348 μM) were applied with and without 3OC12-HSL to ex-vivo rat eyes, and the distribution of drugs was visualised within sagittal ocular cryosections by confocal microscopy. A further set of experiments tested efficacy of 3OC12-HSL via ex vivo porcine skin.
Six hooded rats with pigmented eyes, weighing 280-300 g and aged 7-8 weeks were provided by Bio-Support Unit at the Queen's Medical Centre, Nottingham. Experiments were designed to be performed ex-vivo, immediately post-sacrifice, during experiments supporting other studies. Tested therapies (bevacizumab (250 μg/mL), aflibercept (250 μg/mL) with/without 3OC12-HSL (200 μM) were immediately applied post-sacrifice in (50 μL) to the corneal surface of each animal for a period of 1 hour, before being washed off using ice-cold PBS. The eyeballs were enucleated, immersed in OCT, and flash-frozen in isopentane cooled by liquid N2 before being stored at −80° C. for further processing.
OCT-embedded eyes were cut into 15 μm tissue sections using a cryostat (Leica 3050) and mounted on gelatin-coated slides, at cutting temperatures between −15 and −23° C. […]

The subject of data set [1] is laser-induced mouse model of CNV. Kind of data set: Laser-induced mouse model of choroidal neovascularisation (CNV). Particulars: day 7, topical drops to both eyes twice daily, bevacizumab 250 μg/mL. In kind it is in vivo, C57BL/6J mice. The protocol:
FIG. 7: Anti-angiogenic efficacy of Bevacizumab with and without 3OC12-HSL (agent) in a laser-induced mouse model of CNV.in a mouse model of choroidal neovascularisation. C57BL/6J mice (n=6 per group) were subjected to laser photocoagulation (Merilas, 532α, 450 mW, 130 ms, 75 μm, 4 lesions per eye) on day 0. Post lasering animals received twice daily topical drops to both eyes10 μL of bevacizumab (250 μg/mL) with/without 3OC12-HSL and control vehicle only) for a total of 14 days. FFA was performed on days 7 and 14 and lesion area measured using Fiji software, n=lesions (mice). All data and graphs were calculated with Fiji and GraphPad Prism v8 and statistical analysis using an t-test, with Welch's correction, * p=<0.05, ** p=<0.01. Data bars represent mean±SEM. Scale bar 200 μm.
Six to eight week-old female C57BL/6J mice (16-20 g, Charles River, UK) were anaesthetized with an intraperitoneal (i.p.) injection of 50 mg/kg ketamine hydrochloride (Ketaset®, 100 mg/mL) and 0.5 mg/kg medetomidine hydrochloride (Sedastart®, 1 mg/mL). The pupils were dilated with a drop of 5% phenylephrine hydrochloride and 0.8% tropicamide to each eye. […] Fundus angiograms were imported into Fiji software and lesions were traced by a masked observer and lesion area was quantified over treatment time and compared between treatment groups. […]

Turning to “Bevacizumab: recombinant humanized monoclonal IgG1 antibody which binds to human VEGF (MW 149 kDa)”, in the data set with ex-vivo rat eyes, the “fluorescence in eye sections (CLSM)” value is listed as “No fluorescence was detected”. Besides, the average lesion area in data set [1] was 2.86±0.47×10^4. This substance gave a penetration through skin in the data set on ex vivo porcine skin of 5 mm.

The values above are taken from US20250302816A1, “DISRUPTION OF EPITHELIAL BARRIERS FOR MOLECULAR DELIVERY ENHANCEMENT OR EXTRACTION OF EXTRACELLULAR FLUIDS” (The University of Nottingham, priority 2022, published 2025).
